Results on 1 substance are retold here after article PMC10853514.

This experiment has as its target human myosin VI heavy chain, full length, containing both the large-insertion (LI) and small-insertion (SI) regions (human) (UniProt Q9UM54). The experiment can be described thus: cryo-EM structure; single-particle cryo-EM of myosin VI/CaM in PB, TB + AMPPNP and PB + ATP, the three datasets combined; autoinhibited state, 3.54 Å (4.14 Å map with the SAH-E).

Chain of human myosin VI heavy chain, full length, containing both the large-insertion (LI) and small-insertion (SI) regions (human) (Q9UM54 other isoform, or with tags, fused parts or gaps): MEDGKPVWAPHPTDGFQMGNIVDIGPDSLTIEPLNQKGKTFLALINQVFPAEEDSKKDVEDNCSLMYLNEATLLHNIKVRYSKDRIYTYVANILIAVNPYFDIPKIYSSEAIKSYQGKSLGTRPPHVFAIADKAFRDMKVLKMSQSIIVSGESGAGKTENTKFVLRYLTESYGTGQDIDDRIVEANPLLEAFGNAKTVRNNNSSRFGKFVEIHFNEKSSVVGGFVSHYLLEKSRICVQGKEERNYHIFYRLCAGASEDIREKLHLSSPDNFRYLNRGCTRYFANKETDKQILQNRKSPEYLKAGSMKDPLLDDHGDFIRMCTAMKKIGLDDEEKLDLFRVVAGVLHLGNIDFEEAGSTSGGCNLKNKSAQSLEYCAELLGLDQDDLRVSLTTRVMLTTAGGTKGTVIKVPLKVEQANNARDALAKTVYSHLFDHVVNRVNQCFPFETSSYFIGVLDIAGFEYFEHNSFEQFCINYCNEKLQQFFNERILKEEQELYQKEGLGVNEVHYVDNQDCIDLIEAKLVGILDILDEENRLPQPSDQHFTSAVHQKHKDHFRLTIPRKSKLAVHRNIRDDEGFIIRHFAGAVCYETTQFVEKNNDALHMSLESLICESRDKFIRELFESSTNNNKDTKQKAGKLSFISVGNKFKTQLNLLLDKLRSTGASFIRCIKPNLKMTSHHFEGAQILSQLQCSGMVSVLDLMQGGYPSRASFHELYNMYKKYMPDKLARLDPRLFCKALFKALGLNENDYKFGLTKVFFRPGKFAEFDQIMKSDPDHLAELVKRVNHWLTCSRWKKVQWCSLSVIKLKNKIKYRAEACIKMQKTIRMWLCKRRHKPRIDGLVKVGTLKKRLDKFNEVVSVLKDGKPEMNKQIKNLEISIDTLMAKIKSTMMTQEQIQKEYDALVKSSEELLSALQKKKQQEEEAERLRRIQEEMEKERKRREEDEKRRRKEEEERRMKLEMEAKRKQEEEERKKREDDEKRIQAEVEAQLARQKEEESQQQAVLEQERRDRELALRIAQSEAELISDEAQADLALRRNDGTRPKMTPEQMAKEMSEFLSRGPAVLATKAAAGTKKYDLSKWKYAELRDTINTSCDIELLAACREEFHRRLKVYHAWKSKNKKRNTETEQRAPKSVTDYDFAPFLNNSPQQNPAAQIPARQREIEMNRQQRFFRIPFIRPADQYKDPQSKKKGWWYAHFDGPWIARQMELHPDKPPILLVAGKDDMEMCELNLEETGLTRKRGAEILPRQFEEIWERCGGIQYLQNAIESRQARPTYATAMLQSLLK

Regarding “calmodulin (CaM), light chain of myosin VI (from UniProt P0DP23 1-149) (natural protein)”, the stoichiometry N (in general, a count of units in the complex or per binding partner) was determined as 2.
